According to patent US20220372147A1 (UNIVERSIT T STUTTGART, published 2022):
Read-outs that look alike come from different tables or passages of the source.

What was measured:
[1] = biological target: T1, HER3 on HER3-expressing cancer cells (LIM1215, BT474) (UniProt P21860 20-1342, limits assumed); test: cell-based or functional assay
[2] = biological target: T2, FcεRI Fc fusion protein comprising the extracellular region of FcεRI (human, UniProt P12319 26-205); test: ELISA, immobilized FcεRI-Fc, anti-human Fab detection
T2 construct: extracellular domain; also called FcεRT; FccRT; not shown: Fc part
T2 sequence (looked up): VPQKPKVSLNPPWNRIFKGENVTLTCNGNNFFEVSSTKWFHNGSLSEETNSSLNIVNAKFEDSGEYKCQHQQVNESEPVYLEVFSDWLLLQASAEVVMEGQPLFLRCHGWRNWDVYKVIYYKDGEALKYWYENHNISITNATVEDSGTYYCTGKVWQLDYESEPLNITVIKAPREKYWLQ

[3] = biological target: T3, His-tagged HER3 protein, extracellular domain (ECD) of HER3 (aa 21-643) (UniProt P21860 21-643); test: ELISA, immobilized HER3-His, anti-human Fc-HRP detection
T3 construct: range 21-643; also called HER3-His; not shown: His-tag

[4] = biological target: T1, HER3 on HER3-expressing cancer cells …; test: flow cytometry on HER3-expressing LIM1215 and BT474 cells
[5] = biological target: T4, CD3 on CD3-expressing Jurkat cells (human, UniProt P07766 23-207); test: flow cytometry on CD3-expressing Jurkat cells, PE anti-human Fc
T4 construct: whole, on cells

[6] = biological target: T1, HER3 on HER3-expressing cancer cells …; test: flow cytometry on HER3-expressing LIM1215 cells, PE anti-human Fc
[7] = biological target: T4, CD3 on CD3-expressing Jurkat cells; test: flow cytometry on CD3-expressing Jurkat cells, PE anti-human Fc; remark: listed apart in the source
[8] = biological target: T1, HER3 on HER3-expressing cancer cells …; test: flow cytometry on HER3-expressing BT474 cells, PE anti-human Fc
[9] = biological target: T1, HER3 on HER3-expressing cancer cells …; test: flow cytometry on HER3-expressing LIM1215 cells, PE anti-human Fc; remark: listed apart in the source
[10] = biological target: T5, Flag-tagged FAP protein, extracellular domain of FAP (aa 32-728) (UniProt Q12884 32-728); test: ELISA, immobilized FAP-Flag, anti-human Fc-HRP detection
T5 construct: range 32-728; also called FAP-Flag; not shown: Flag-tag

[11] = biological target: T1, HER3 on HER3-expressing cancer cells …; test: cell-based or functional assay; remark: listed apart in the source
[12] = biological target: T3, His-tagged HER3 protein, extracellular …; test: ELISA, immobilized HER3-His, anti-human Fc-HRP detection; remark: listed apart in the source
EGFR-Fc = biological target: T6, EGFR-Fc (UniProt P00533 25-645); test: bifunctional sandwich ELISA: immobilized EGFR-Fc, titrated eIg-Fab, then HER3-His as second antigen detected with anti-His-HRP
T6 construct: also called immobilized EGFR-Fc antigen; not shown: Fc part

[13] = biological target: EGFR (immobilized control antigen of Example 11) (UniProt P00533 25-645, limits assumed); test: ELISA at 50 nM, immobilized EGFR, anti-human Fab detection
[14] = biological target: T3, His-tagged HER3 protein, extracellular …; test: ELISA, immobilized HER3-His, anti-human Fab-HRP detection
EGFR-moFc = biological target: T7, EGFR-moFc (UniProt P00533 25-645); test: bifunctional sandwich ELISA: immobilized HER3-His, EGFR-moFc detected with anti-mouse Fc-HRP
T7 construct: also called EGFR-moFc protein (second soluble antigen); not shown: murine Fc part

[15] = biological target: T3, His-tagged HER3 protein, extracellular …; test: bifunctional sandwich ELISA: immobilized HER3-His, titrated Fab-eFab, then EGFR-moFc as second antigen detected with anti-mouse Fc-HRP

T4 sequence (P07766 23-207): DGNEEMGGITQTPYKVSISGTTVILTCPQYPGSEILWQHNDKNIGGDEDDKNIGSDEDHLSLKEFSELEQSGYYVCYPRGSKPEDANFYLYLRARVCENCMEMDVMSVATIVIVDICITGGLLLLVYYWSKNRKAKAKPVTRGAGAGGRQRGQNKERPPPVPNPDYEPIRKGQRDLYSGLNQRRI
T5 sequence (Q12884 32-728 limits assumed): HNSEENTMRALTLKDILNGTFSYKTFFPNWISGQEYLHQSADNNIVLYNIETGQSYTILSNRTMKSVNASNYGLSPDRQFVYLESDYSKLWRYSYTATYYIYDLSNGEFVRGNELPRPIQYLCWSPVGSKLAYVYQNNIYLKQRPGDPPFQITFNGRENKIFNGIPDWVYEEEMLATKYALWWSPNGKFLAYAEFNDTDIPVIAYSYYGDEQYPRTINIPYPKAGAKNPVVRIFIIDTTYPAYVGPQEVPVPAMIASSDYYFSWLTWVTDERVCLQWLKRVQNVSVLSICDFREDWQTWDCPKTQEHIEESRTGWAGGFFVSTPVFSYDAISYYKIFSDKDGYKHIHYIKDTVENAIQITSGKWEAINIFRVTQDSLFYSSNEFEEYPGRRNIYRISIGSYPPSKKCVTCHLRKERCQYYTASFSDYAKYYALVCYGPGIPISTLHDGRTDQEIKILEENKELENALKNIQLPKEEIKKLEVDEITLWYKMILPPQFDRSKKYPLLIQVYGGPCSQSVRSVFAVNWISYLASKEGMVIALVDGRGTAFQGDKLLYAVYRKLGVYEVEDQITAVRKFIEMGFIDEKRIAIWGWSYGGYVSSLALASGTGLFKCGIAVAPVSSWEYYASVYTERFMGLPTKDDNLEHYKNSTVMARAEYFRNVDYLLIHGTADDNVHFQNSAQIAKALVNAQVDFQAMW

B1: bispecific and bivalent anti-CD3 x anti-HER3 eIgG (bispecific antibody)
light 1: QAGLTQPPAVSVAPGQTASITCGRDNIGSRSVHWYQQKPGQAPVLVVYDDSDRPAGIPERFSGSNYENTATLTISRVEAGDEADYYCQVWGITSDHVVFGGGTKLTVLGQPKAAPSVTLFPPSSEELQANKATLVCLISDFYPGAVTVAWKADSSPVKAGVETTTPSKQSNNKYAASSYLSLTPEQWKSHRSYSCQVTHEGSTVEKTVAPTECS
heavy 1: not shown
heavy 2: not shown
light 2: not shown
notes: One site for HER3 (3-43), one for CD3 (huU3, humanized UCHT1); also called eIg1; eIgl
**Q.** Which “EC50 value in cell killing (PBMC-mediated cytotoxicity on BT-474 cells, crystal violet)” value [1] does the source give for B1 here?
**A.** 3.8 nM

**Q.** What about the “EC50 value in cell killing (PBMC-mediated cytotoxicity on LIM1215 cells, crystal violet)” value [1] of the same binder?
**A.** 5.8 nM

**Q.** Does B1 bind [2]?
**A.** no binding (tested: 50 nM)

**Q.** What about the EC50 [3] of the same binder?
**A.** 2.1 nM

**Q.** What about the “factor weaker binding than the bispecific, trivalent eIg-Fab molecules” value [4] of the same binder?
**A.** ≤ 50 fold

**Q.** What about the EC50 [5] of the same binder?
**A.** 11.9 nM

**Q.** And the EC50 [6]?
**A.** 0.4 nM

**Q.** And the EC50 [7]?
**A.** 5.1 nM

**Q.** What about the EC50 [8] of the same binder?
**A.** 4.8 nM

**Q.** What about the EC50 [9] of the same binder?
**A.** 4 nM

B2: bivalent and bispecific eIg molecule targeting HER3 and FAP (bispecific antibody)
light 1: QAGLTQPPAVSVAPGQTASITCGRDNIGSRSVHWYQQKPGQAPVLVVYDDSDRPAGIPERFSGSNYENTATLTISRVEAGDEADYYCQVWGITSDHVVFGGGTKLTVLGQPKAAPSVTLFPPSSEELQANKATLVCLISDFYPGAVTVAWKADSSPVKAGVETTTPSKQSNNKYAASSYLSLTPEQWKSHRSYSCQVTHEGSTVEKTVAPTECS
heavy 1: not shown
light 2: DIQMTQSPSSLSASVGDRVTITCRASKSVSTSAYSYMHWYQQKPGKAPKLLIYLASNLESGVPSRFSGSGSGTDFTLTISSLQPEDFATYYCQHSRELPYTFGQGTKLEIKRDFTPPTVKILQSSSDGGGHFPPTIQLLCLVSGYTPGTIQITWLEDGQVMDVDLSTASTTQEGELASTQSELTLSQKHWLSDRTYTCQVTYQGHTFEDSTKKCADSN
heavy 2: not shown
notes: Four different polypeptide chains; one site for HER3, one for FAP; also called eIg antibody targeting HER3 and FAP
**Q.** Which results are given for B2?
**A.** EC50 [10]: 7.6 nM; EC50 [3]: 3.4 nM

B3: bispecific, trivalent eIg-Fab3 targeting HER3 and CD3 (bispecific antibody)
light 1: QAGLTQPPAVSVAPGQTASITCGRDNIGSRSVHWYQQKPGQAPVLVVYDDSDRPAGIPERFSGSNYENTATLTISRVEAGDEADYYCQVWGITSDHVVFGGGTKLTVLGQPKAAPSVTLFPPSSEELQANKATLVCLISDFYPGAVTVAWKADSSPVKAGVETTTPSKQSNNKYAASSYLSLTPEQWKSHRSYSCQVTHEGSTVEKTVAPTECS
light 2: not shown
heavy 1: QVQLVQSGAEVKKPGSSVKVSCKASGGTFSGYTMNWVRQAPGQGLEWMGLINPYKGVSTYNGKFKDRVTITADKSTSTAYMELSSLRSEDTAVYYCARSGYYGDSDWYFDVWGQGTLVTVSSDFTPPTVKILQSSCDGGGHFPPTIQLLCLVSGYTPGTINITWLEDGQVMDVDLSTASTTQEGELASTQSELTLSQKHWLSDRTYTCQVTYQGHTFEDSTKKSADSNGGSGGGGSGGQVQLQQSGPGLVKPSQTLSLTCAISGDSVSSNRAAWNWIRQSPSRGLEWLGRTYYRSKWYNDYAQSLKSRITINPDTPKNQFSLQLNSVTPEDTAVYYCARDGQLGLDALDIWGQGTMVTVSSASTKGPSVFPLAPSSKSTSGGTAALGCLVKDYFPEPVTVSWNSGALTSGVHTFPAVLQSSGLYSLSSVVTVPSSSLGTQTYICNVNHKPSNTKVDKKVEPKSCGTDKTHTCPPCPAPPVAGPSVFLFPPKPKDTLMISRTPEVTCVVVDVSHEDPEVKFNWYVDGVEVHNAKTKPREEQYNSTYRVVSVLTVLHQDWLNGKEYKCKVSNKGLPSSIEKTISKAKGQPREPQVYTLPPCRDELTKNQVSLWCLVKGFYPSDIAVEWESNGQPENNYKTTPPVLDSDGSFFLYSKLTVDKSRWQQGNVFSCSVMHEALHNHYTQKSLSLSPGK
heavy 2: QVQLQQSGPGLVKPSQTLSLTCAISGDSVSSNRAAWNWIRQSPSRGLEWLGRTYYRSKWYNDYAQSLKSRITINPDTPKNQFSLQLNSVTPEDTAVYYCARDGQLGLDALDIWGQGTMVTVSSASTKGPSVFPLAPSSKSTSGGTAALGCLVKDYFPEPVTVSWNSGALTSGVHTFPAVLQSSGLYSLSSVVTVPSSSLGTQTYICNVNHKPSNTKVDKKVEPKSCGTDKTHTCPPCPAPPVAGPSVFLFPPKPKDTLMISRTPEVTCVVVDVSHEDPEVKFNWYVDGVEVHNAKTKPREEQYNSTYRVVSVLTVLHQDWLNGKEYKCKVSNKGLPSSIEKTISKAKGQPREPQVCTLPPSRDELTKNQVSLSCAVKGFYPSDIAVEWESNGQPENNYKTTPPVLDSDGSFFLVSKLTVDKSRWQQGNVFSCSVMHEALHNHYTQKSLSLSPGK
**Q.** How did the “potency in cell killing relative to eIg-Fab4” value [11] turn out when B3 was run?
**A.** ~4 fold

**Q.** What about the “EC50 value in cell killing (PBMC-mediated cytotoxicity on BT-474 cells, crystal violet)” value [1] of the same binder?
**A.** 0.5 nM

**Q.** What about the “EC50 value in cell killing (PBMC-mediated cytotoxicity on LIM1215 cells, crystal violet)” value [1] of the same binder?
**A.** 0.4 nM

**Q.** What about the EC50 [7] of the same binder?
**A.** 1.1 nM

**Q.** What about the EC50 [8] of the same binder?
**A.** 0.2 nM

**Q.** And the EC50 [9]?
**A.** 0.4 nM

B4: tetravalent and bispecific eIg-Fab molecule targeting HER3 and EGFR (bispecific antibody)
light 1: QAGLTQPPAVSVAPGQTASITCGRDNIGSRSVHWYQQKPGQAPVLVVYDDSDRPAGIPERFSGSNYENTATLTISRVEAGDEADYYCQVWGITSDHVVFGGGTKLTVLGTDFTPPTVKILQSSSDGGGHFPPTIQLLCLVSGYTPGTIQITWLEDGQVMDVDLSTASTTQEGELASTQSELTLSQKHWLSDRTYTCQVTYQGHTFEDSTKKCADSN
light 2: DIQLTQSPSFLSASVGDRVTITCRASQSIGTNIHWYQQKPGKAPKLLIKYASESISGVPSRFSGSGSGTEFTLTISSLQPEDFATYYCQQNNNWPTTFGAGTKLEIKRTVAAPSVFIFPPSDEQLKSGTASVVCLLNNFYPREAKVQWKVDNALQSGNSQESVTEQDSKDSTYSLSSTLTLSKADYEKHKVYACEVTHQGLSSPVTKSFNRGEC
heavy: not shown
notes: Homodimerizing Fc; also called eIg-Fab EGFRxHER3
**Q.** Which results are given for B4?
**A.** binding result [2]: no binding (tested: 50 nM); EC50 [12]: 3.3 nM; EC50 (EGFR-Fc): 0.23 nM

B5: bivalent and bispecific Fab-eFab molecule targeting HER3 and EGFR (bispecific antibody)
light 1: QAGLTQPPAVSVAPGQTASITCGRDNIGSRSVHWYQQKPGQAPVLVVYDDSDRPAGIPERFSGSNYENTATLTISRVEAGDEADYYCQVWGITSDHVVFGGGTKLTVLGTDFTPPTVKILQSSSDGGGHFPPTIQLLCLVSGYTPGTIQITWLEDGQVMDVDLSTASTTQEGELASTQSELTLSQKHWLSDRTYTCQVTYQGHTFEDSTKKCADSN
light 2: DIQLTQSPSFLSASVGDRVTITCRASQSIGTNIHWYQQKPGKAPKLLIKYASESISGVPSRFSGSGSGTEFTLTISSLQPEDFATYYCQQNNNWPTTFGAGTKLEIKRTVAAPSVFIFPPSDEQLKSGTASVVCLLNNFYPREAKVQWKVDNALQSGNSQESVTEQDSKDSTYSLSSTLTLSKADYEKHKVYACEVTHQGLSSPVTKSFNRGEC
heavy: EVQLVESGGGLVQPGGSLRLSCAASGFSLTNYGVHWVRQAPGKGLEWLGVIWSGGNTDYNTPFTSRFTISRDNSKNTLYLQMNSLRAEDTAVYYCARALTYYDYEFAYWGQGTTVTVSSASTKGPSVFPLAPSSKSTSGGTAALGCLVKDYFPEPVTVSWNSGALTSGVHTFPAVLQSSGLYSLSSVVTVPSSSLGTQTYICNVNHKPSNTKVDKKVEPKSCGGSGGGGSGGQVQLQQSGPGLVKPSQTLSLTCAISGDSVSSNRAAWNWIRQSPSRGLEWLGRTYYRSKWYNDYAQSLKSRITINPDTPKNQFSLQLNSVTPEDTAVYYCARDGQLGLDALDIWGQGTMVTVSSDFTPPTVKILQSSCDGGGHFPPTIQLLCLVSGYTPGTINITWLEDGQVMDVDLSTASTTQEGELASTQSELTLSQKHWLSDRTYTCQVTYQGHTFEDSTKKSADSNAAAHHHHHH
notes: No Fc region; one site for EGFR and one for HER3; C-terminal His-tag on the heavy chain; also called Fab-eFab EGFRxHER3
**Q.** Does B5 bind [2]?
**A.** no binding (tested: 50 nM)

**Q.** Does B5 bind [13]?
**A.** binds

**Q.** And the EC50 [14]?
**A.** 3.9 nM

**Q.** Does B5 bind (EGFR-moFc)?
**A.** binds

**Q.** What about the EC50 [15] of the same binder?
**A.** 1.4 nM
